Assay results taken from doi:10.1101/2024.11.05.622117 (bioRxiv, 2024).

Target: the molecule itself

IRIDIRIDIRG [Peptide IRIDIRIDIRG (SID)]
binding result: binds
